{"source": "patent US20170086465A1", "about": "(TECHNION RESEARCH AND DEVELOPMENT FOUNDATION, published 2017)", "target": "the molecule itself", "assay": "cell-based or functional assay", "data": [{"protein": "C. elegans aff-1 fused to a C-terminal FLAG tag (AFF-1::FLAG) (other) RLRRHHRKRRFVSSNFDEFYCGESAHAQSQFEEERESNSSKVSSVHSTQFNWGLDNTICIKLQNVVHVLKYERLEQRYPIENSYTFSVPLIDTNCKCHCYGFGTNDVCNVEKYADDRNCTTSSEFPTCYTKYHPAVEPLDCPVTSIPAKACCDIKLKPRDGRMFRAVKLQQPINDMIISHSIFANNSGKMMKVLGPDEFRINLLKGKEQFELTEYHRISVQLVASSPQQQLREGMYYFPEENHNDLREGKINEITESDLDKLGWYRRVGNDWQVATSGLLLRNAHKVVIKNCKGQVHMDQFSGTKNFVLRGTQYNDTYNERRVSDNNFVRSVKVDESSREITIVHEHGTAAQVSLKTDTRPNLTKSQSLLANFTGSITLDHDGNRMLNVTFFGVKGTVHIKMYVNDRKLIATFACTAQFGTSLKDDGSRISLPSTINQAQWVCILPDEQPTKSEICKWIPYEEKAMRTPRQEQSWSKGHSPCSQAECNSLKSGVSDLFPWIMNFDYFMAHGGDFTEWLKIGIHIVIAVGLLLLLILLFTKCLVPLACCSLSIPFKNRNKKKKKKNSSDY", "values": [{"measurement": "infection of BHK-AFF-1 cells by VSVΔG-AFF-1 pseudovirus (GFP-expressing cells)", "value": 600, "unit": "fold"}]}]}
